Drawing on article PMC5454392, “Selective BET bromodomain inhibition as an antifungal therapeutic strategy” (Nature Communications, 2017), this text covers binding score for 43 molecules.

Assay [1] concerns the target T1, CaBdf1 BD2 (GST-tagged, wild-type) (Candida albicans (strain SC5314 / ATCC …, UniProt Q5A4W8)).
T1 chain: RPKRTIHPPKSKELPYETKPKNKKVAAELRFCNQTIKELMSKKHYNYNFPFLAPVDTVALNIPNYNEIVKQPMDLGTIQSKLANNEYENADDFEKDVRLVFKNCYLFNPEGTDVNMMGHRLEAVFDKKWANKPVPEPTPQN
Description: histone peptide array (Active Motif MODified), 1 uM GST-tagged bromodomain, anti-GST detection, normalized mean intensity.

For assay [2], the target named is T2, CaBdf1 BD1 (GST-tagged, wild-type) (Candida albicans (strain SC5314 / ATCC …, UniProt Q5A4W8)).
T2 chain: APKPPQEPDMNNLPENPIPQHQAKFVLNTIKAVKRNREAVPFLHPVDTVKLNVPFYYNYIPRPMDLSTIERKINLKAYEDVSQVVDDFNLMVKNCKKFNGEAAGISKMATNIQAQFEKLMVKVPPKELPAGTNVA
The description is as above.

Numbered stars: 1 amine (or outer) side, 2 acyl side, 3 side chain; on linkers, the order of the positions; unused ones are H or OH. Square brackets hold non-standard residues; d marks the D form. Ends that are not written are not given here. Arg(Me2a) = CN(C)C(=N)NCCC[C@H](N)C(=O)O; Kac = CC(=O)NCCCC[C@H](N[*:1])C(=O)[*:2]; Lys(Me3) = C[N+](C)(C)CCCC[C@H](N)C(=O)O; Arg(Me2s) = CN=C(NC)NCCC[C@H](N)C(=O)O; pT = C[C@@H](OP(=O)(O)O)[C@H](N)C(=O)O; pS = N[C@@H](COP(=O)(O)O)C(=O)O; Lys(Me) = CNCCCC[C@H](N)C(=O)O; Me2a = not defined here

As to PRKQLATKAAR(Me2s)KSAPATGG, the binding score was found to be 0.0037 in assay [1] and 0.00616 in assay [2].
Take ARTKQTARKSTGGKAPRKQ (A R T Kac Q T A Rme2s Kme2 S T G G K A P R K Q): the figures for the binding score in assay [1] and in assay [2] were 0.00296 and 0.00363, respectively.
The matching figures for ARTKQTARKSTGGKAPRKQ (not fully specified): 0.00259 and 0.
For the molecule ARTKQTARKSTGGKAPRKQ (A Rme2s pT Kme3 Q T A R K S T G G K A P R K Q), the binding score in assay [1] was 0.00185; in assay [2] it was 0.00363.
As to ARTKQTARKSTGGKAPRKQ (A R T K Q T A Rme2s Kme2 S pT G G K A P R K Q), the binding score in assay [1] amounted to 0.00259; in assay [2], 0.00906.
A[Arg(Me2a)]T[Lys(Me)]QTA[Arg(Me2s)][Lys(Me)]STGGKAPRKQ: the binding score in assay [1] was determined as 0.0037; in assay [2], 0.00471.
On to ARTKQTARKSTGGKAPRKQ (A R T K Q T A R K pS T G G K A P R K Q), for which the figures for the binding score in assay [1] and in assay [2] were 0.00074 and 0.00181, respectively.
For the molecule ARTKQTARKSTGGKAPRKQ (A R T Kme2 Q T A Rme2s Kac S T G G K A P R K Q), the results for the binding score in assay [1] and in assay [2] were 0.00592 and 0.0305, respectively.
The like results for SGRGKQGGK(Ac)ARAKAKSRSS were, in that order, 0.00814 and 0.0276.
On to ARTKQTARKSTGGKAPRKQ (A Rme2s T Kme3 Q T A Rme2s Kme2 S T G G K A P R K Q), for which the binding score in assay [1] worked out at 0.00407; in assay [2], 0.0029.
ARTKQTARKSTGGKAPRKQ (A Rme2s T Kac Q T A R Kme3 S T G G K A P R K Q): the binding score in assay [1] stood at 0.00259; in assay [2] it was 0.00616.
As to PRKQLATKAA[Arg(Me2a)]K[pS]APATGG, the values for the binding score in assay [1] and in assay [2] were 0.00407 and 0.00435, respectively.
The matching figures for [pS]GRGKQGGK(Ac)ARAK(Ac)AKSRSS: 0.00592 and 0.0642.
For the molecule A[Arg(Me2a)]T[Lys(Me)]QTAR[Kac]STGGKAPRKQ, the binding score in assay [1] amounted to 0.00592; in assay [2] it was 0.0359.
PDPAK(Ac)SAPAPKKGSKKAVT: the binding score in assay [1] stood at 0; in assay [2], 0.00363.
The like results for SGRGKGGKGLGKGGAKRHR (S G Rme2a G Kac G G K G L G K G G A K R H R) were, in that order, 0.00703 and 0.0105.
With ARTKQTA[Arg(Me2a)][Lys(Me)]S[pT]GGKAPRKQ, the binding score in assay [1] was determined as 0.00259; in assay [2], 0.00471.
For the molecule PDPAKSAPAPKKG[pS]KKAVT, the binding score amounted to 0.00148 in assay [1] and 0.00326 in assay [2].
Take A[Arg(Me2s)]TK(Ac)QTA[Arg(Me2a)][Lys(Me)]STGGKAPRKQ: the binding score in assay [1] came out at 0.00296; in assay [2], 0.00834.
The matching figures for PRKQLATKAARK(Me2)[pS]APATGG: 0.00074 and 0.0029.
On to A[Arg(Me2a)][pT][Lys(Me3)]QTARKSTGGKAPRKQ, for which the results for the binding score in assay [1] and in assay [2] were 0.00074 and 0.00725, respectively.
The like results for ARTKQTARKSTGGKAPRKQ (A R T K Q T A R Kme3 pS T G G K A P R K Q) were, in that order, 0.00333 and 0.00363.
As for [pS]GRGKQGGKARAK(Ac)AKSRSS, the binding score came to 0.02 in assay [1] and 0.0906 in assay [2].
Turning to AR(me2s)TK(Me)QTARKSTGGKAPRKQ, the binding score is 0.00037 in assay [1] and 0.00326 in assay [2].
On to SGRGKGGKGLGKGGAKRHR (S G Rme2s G Kac G G Kac G L G Kac G G A K R H R), for which the values for the binding score in assay [1] and in assay [2] were 0.332 and 0.175, respectively.
Regarding SGRGK(Ac)QGGKARAK(Ac)AKSRSS, the binding score in assay [1] turned out to be 0.0859; in assay [2] it was 0.109.
The like results for ARTK(Me)QTAR(me2s)K(Me)STGGKAPRKQ were, in that order, 0.00592 and 0.00689.
On to ARTKQTARKSTGGKAPRKQ (A Rme2s T Kac Q T A Rme2a Kac S T G G K A P R K Q), for which the binding score came out at 0.00851 in assay [1] and 0.0573 in assay [2].
Regarding SGRGKGGKGLGKGGAKRHR (S G Rme2a G Kac G G Kac G L G Kac G G A K R H R), the figures for the binding score in assay [1] and in assay [2] were 0.375 and 0.236, respectively.
For ARTKQTARKSTGGKAPRKQ (A R T K Q T A R K pS T G G Kac A P R K Q), the binding score in assay [1] was determined as 0.0107; in assay [2], 0.0301.
For ARTKQTARKSTGGKAPRKQ (A Rme2s T Kac Q T A Rme2a Kme3 S T G G K A P R K Q), the binding score in assay [1] stood at 0.00407; in assay [2], 0.00471.
In the case of AR(Me2s)TK(Me)QTAR(Me2a)K(Me)STGGKAPRKQ (reading uncertain), the binding score in assay [1] was found to be 0.00222; in assay [2], 0.00435.
The matching figures for PRKQLATKAAR(Me2a)K(Me)[pS]APATGG (reading uncertain): 0.00703 and 0.0029.
On to ART[Lys(Me3)]QTARKSTGGKAPRKQ, for which the binding score in assay [1] worked out at 0.00148; in assay [2], 0.00399.
As to PRKQLATKAARKSAPATGG (P R K Q L A T K A A Rme2a Kme3 S A P A T G G), the binding score in assay [1] amounted to 0.00703; in assay [2] it was 0.00363.
As to ARTKQTARKSTGGKAPRKQ (A R T Kac Q T A Rme2a Kac S T G G K A P R K Q), the binding score in assay [1] was 0.0126; in assay [2], 0.0464.
The matching figures for ARTKQTARKSTGGKAPRKQ (A Rme2s T Kme1 Q T A Rme2s Kac S T G G K A P R K Q): 0.00555 and 0.0344.
The like results for ARTKQTARKSTGGKAPRKQ (A R T K Q T A Rme2s Kme1 S pT G G K A P R K Q) were, in that order, 0.00407 and 0.0029.
Take ARTKQTARKSTGGKAPRKQ (A Rme2a T Kme3 Q T A Rme2a Kme3 S T G G K A P R K Q): the binding score in assay [1] is 0.00333; in assay [2], 0.00399.
In the case of PRKQLATKAAR(Me2a)K(Ac)[pS]APATGG (reading uncertain), the values for the binding score in assay [1] and in assay [2] were 0.00222 and 0.0058, respectively.
On to A[Arg(Me2s)]T[Lys(Me)]QTA[Arg(Me2a)][Lys(Me3)]STGGKAPRKQ, for which the binding score in assay [1] was found to be 0.00592; in assay [2], 0.0058.
In the case of PRKQLATKAARK(Ac)[pS]APATGG, the figures for the binding score in assay [1] and in assay [2] were 0.00148 and 0.0029, respectively.
As to SGRGKGGKGLGKGGAKRHR (S G Rme2a G K G G Kac G L G K G G A K R H R), the figures for the binding score in assay [1] and in assay [2] were 0.0074 and 0.0218, respectively.
